Test results published in the supplement of paper PMC9170038.

What follows are sequences tested on K4 kissing-loop RNA reporter (assay: apparent KD of K4 kissing-loop reporter; higher = weaker reporter binding). Settings: Eterna round: R107; input ligand: arginine 13.2 mM.
Method: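 RNA-MaP round R107: designed RNA switches with theophylline, tryptophan, arginine or FMN aptamers are transcribed on-chip within common flanks. They are titrated with a labelled K4 kissing-loop RNA reporter in RNA-MaP buffer (100 mM Tris pH 7.5, 80 mM KCl, 4 mM MgCl2), without ligand or with the indicated ligand. Median apparent KD per design.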
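Further: bound reporter read as fluorescence of individual clusters on recovered sequencing chips by microscopy, with normalized cluster intensities fitted with a binding model.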

| Sequence | apparent KD of K4 kissing-loop reporter |
| --- | --- |
| AAGGUUUAGCACGAUACCAGCCUGGAGGCCAGUGAUGUUGGCCGAUUUGAACAGAAUUAAGGCCCUUGGCAGCGUCUCUAAAACC [Dierra] | 180 nM |
| GGGUCUGUCGGAAGGAGCGCGCUAUGGAGUGAUGUUCCAUGACCGUACAGCUUACGGUCAGCGCAGGUAGGUCGCCGAUAGCGUU [Geordiar] | 116 nM |
| GGUGCUGUCUGUGCCGCCCUCCUCGUCCCUCGAGGACCGGUACGGCCGCCACUCGAGUGAUGUUCGGGUAGCCAUCCCUGCUAGC [Bdazzled - #19 Exc. Tryptophan A] | 666 nM |
| AAAAUAACCCAGUGAUGUUGGUAUACAGAUACCAGCGACGAAAGUCGCCCUUGGCAGCUGUGGACGUACAAAAUAAGUACGUCCU | 705 nM |
| CUUAAGAUAUGAGUGAUGUUCAUGUCCGAAGGAGCGUGCGAAAGCACAGGUAGGUCGCGGAUGUGAGUGAUGUUCAUGUAAGCGA [KL-XArg-A12 #analogue] | 105 nM |
| UUUAACGAGUGAUGUUCGAAAAGUAAUGGUGAGGAUAUCGUUUUUUCGAGAAGGCACCUCGAAGUGAUACGAAAGUAUCGCUUCG [FMN A 3] | 332 nM |
| AUGUUGAGCGGAAGGAGCGGCUGAACCAGUGAUGUUGGUUAAUCCAAGUGAUGUUGGAAAAGCCAGGUAGGUCGCCGCUUUAUGU [Same State Arg B GF 2] | 534 nM |
| GCCGUAGAUUGAAGGAGCGCCGCGCAUGUCCCGCUUAGUGUAGUGAUGUUACAGUUUCAGCGGCAGGUAGGUCGCAAUCUACGGC | 83.3 nM |
| GGAGGGAUCUCGGCCGCCACUCGUGGGAAAUGGGCCUCAGGGAUAUAGUGAUGUUAUGUAAAGAAGAGGACCGGGAGAAGGAAGG [ExTryptoB.Dg] | 269 nM |
| UGGUUUAGAAGUGAUGUUUCGAUAAGUGAUACCAGACAAAAGAAAGUCCCUUGGCAGCACAAUGAUGCCAAGGAAACGGCAUGAU [Same State Theophylline A GF 1] | 146 nM |
| GCCGUACGCAUGGAUACCAGCAUGCAUAUUAGCUAGUGAUGUUAGCGCUAUGCGAUGCUAUGCCCUUGGCAGCCAUGCGUACGGC | 108 nM |
| AGACUACCACACUGUCAAUAGACAGUGAGGUAGGAUAUGCUGAAAAGCAGAAGGACCAGUGAUGUUGGUAGGUAGUCAAAAUAAA [FmnAX 11 #SwitchBubble #StaticStem #K4Early] | 112 nM |
| GCAGUGAUGUUGCGCGGGUACGGUAGAGUGCGAGGACCGGUACGGCCGCCACUCGUACGGAACUGGCUAAUAUAUGGAUAGGUGA [V] | 318 nM |
| UGUGUUGUUUUGAUGUUUGGUGUUUGUUGGCAGGAUAUCGUAGAGGCGAGAAGGGCUUGGGAGCGGUAUGAGUGAUGUUUGUAGG [deedwrmullin] | 186 nM |
| UUGCGUCUCUGAGGAUAUCAGAACAGAGUGAUGUUCUGUCAACGCCCAGUGAUGUUGGAUGCGAUCUGAGAAGGCAGUGGGCGCG [Same State FMN B GF 10] | 188 nM |
| GUAUCGCUAGGAGGAUAUUCCAUUUUACAUAGAAAUGGCUAUGCGAAGUGAUGUUUCGAUUUACGGGAAGAAGGCCUAGUGAUAC [FMN B 22] | 148 nM |
| UGUACCGAGUGAGGAUAUGUCGUCGAAAGACGAAAUGGAGUGAUGUUCCUUAAACUGCGAAAGCAGACAGAAGGUACUUGGUACU [FmnBS 29 G11+U75] | 298 nM |

| Sequence | apparent KD of K4 kissing-loop reporter |
| --- | --- |
| GCAGUGAUGUUGCAAAAUGUCUGUGGUAGUCGAGGACCGGUACGGCCGCCACUCGGUGAGAACCUGCUAAUACAUCGAUAAGUGA [IX] | 580 nM |
| UACAAACGUAGUGAUGUUACGUACUCUGAUACCAGACAACUCUAAGUCCCUUGGCAGCAGUCACUUAGCUUAUUAUUUUCUCAAA [JR_Nu_ExcTheophyA_Sub026] | 134 nM |
| AUAUCUGAUAGCAGUGAUGUUGCUUCAGAUACCAGACGAGAUCAUGUCCCUUGGCAGCUGACACGGCACGUGCUAGGUUAGAUGA [Theo A Ex t2] | 92.6 nM |
| GAUGAUCGCGCGGCCGCCACUGGUCAGUGAUGUUGACAUUAAUGCGCCGAGUAGUAACGGCGCAACAGGACCGGGCGCGAUGUAG [#11 K4 Tryptophan B Same State] | 160 nM |
| AGAAAAGGGACGAUCGUCGAGUUGCCAGAAGGAGCGGUAAUUUUACCAGGUAGGUCGCUGGCCCAGUGAUGUUGGGCUUUUAAGA [Biisinaor] | 96.5 nM |
| AAAGUUGAAAGUGAUACCAGACGAGUGAAGGGAAGUAAUUAAUUUGGAGUGAUGUUCCGCGUCCCUUGGCAGCAUUUUGUAAUUU [Exclusion Theophylline B GF 24] | 195 nM |
| GUUACGCAUGGAAGGAGCGCGAAUUUAAUUAGUGAGUGAUGUUCACAUAAAAUAUAUAAUACGCAGGUAGGUCGCCAUGUGUAAC [Ex Arginine B K4 1] | 83.1 nM |
| GACAACAGGGUGAGACUCACGGCGCCAGAAGGAGCGGUGAUUCCACCAGGUAGGUCGCUGGCCCAGUGAUGUUGGGCUUUGUGUC [Onoran] | 120 nM |
| CACCAUGAAUUCUCUAGGAGUGAUGUUUUUCGAGGACCGGUACGGCCGCCACUCGGACGAGGACCGUGGGAGCGGCGAAAAGACU [ghgmullin] | 225 nM |
| UUUAACGAGUGAUGUUCGUAAAGUAAUAGUUAGGAUAUCGUUUUUUCGAGAAGGAACUUCGAAGUGAUACGAAAGUAUCGCUUCG [FMN A 8] | 192 nM |
| UGACUGGACUGAAGGAGCGGGCGAGACAAAGUCUCGAACUCGUAGUGAUGUUAUGAAAUAACCCAGGUAGGUCGCAGUCUAGUCU | 684 nM |
| AAAAUAAACCAGUGAUGUUGGUAUCCAGAUACCAGCGACGAAAGUCGCCCUUGGCAGCUGUGGACGUACAAAAUAAGUACGUCCU | 619 nM |
| UAACGCUGACAGCAACAAUUCGGGCCUGAUACCAGCAAUUUUUCAUGCCCUUGGCAGCAGAGUGAUGUUUUCUGUCUAUUUAGUC [theeternabot_exclusion_KL_Theo_A_23] | 723 nM |
| CGCCGCAAGGCGGGCCGGCCCACUCCGGAAGGAGCGCCCGCAAGGGCAGGUAGGUCGCCGGAGUGAUGUUCCGGUGGCCGGCCCG [#2 Exclusion - Arginine A Attempt #3 (Inspired by Omei)] | 244 nM |
| AGCAGUGAUGUUGCAUUUAAAAUGACCGAUACCAGUAUCGAUAGAUACCCUUGGCAGCGGAUUUCCGCAACGACUAGGAAACUAG [Ex Theophylline A K4 15] | 377 nM |
| CACGUUUACCAAGGAUAUGGUCUGCCGCGGAACCGUUCAAGUGAUGUUUGAUUCGAGUAUUAAUCUCCAGAAGGUGGUAGUACAG [theeternabot_exclusion_KL_FMN_B_6] | 353 nM |

Same assay, conditions: Eterna round: R107; input ligand: none

| Sequence | apparent KD of K4 kissing-loop reporter |
| --- | --- |
| AAGUUAUGAUCUGAUACCAGACUUUAUCUUGUUUAUAAGUCAAGUGAUGUUUGACUAUUAGUCCCUUGGCAGCAGUAUUGUUUAA [#18 K4 Theophylline B Same State] | 302 nM |
| AAGAAGAAUGGAAGGAGCGAGCAGAAAUAACCAGUGAUGUUGGAAAGCCUUAUUGCUUAAGCUCAGGUAGGUCGCCAAGAAAAGA [Mostly trial and error] | 205 nM |
| GGAUAGGACAGAGGAUAUGGAGAGUCUACAAAGUAGGCUCAUAAUCCUUGAAUGGAAGUGAUGUUUCCAGAAGGCUGUCCUAUCG [FmnBX 17 - #SwitchBubble #StaticStem #Palindromic] | 103 nM |
| UGCGCUAUGUCCUAAAACGUCCUCCGGGAUACCAGAGUCUUUUUAUUCCCUUGGCAGCUUGAGUGAUGUUUGAUGCCGUUCUUGU [srrevmullin] | 366 nM |
| CGAGUCCUGAGGAGUGAUGUUCCUCGGCCACGAGGACCGGUACGGCCGCCACUCGUUACUCGGGCUUAGUGGCUAGCACUAAGCU [Tirete] | 203 nM |
| GCUCAGGAGUGAUGUUCCAAGUGGUGUUAACGAGGACCGGUACGGCCGCCACUCGAUACGGCCGGACCGUAGGAUAAACUAGAGC [Same State - Tryptophan A (Freestyle 11)] | 196 nM |
| CAGAACUUGUAUAUAGGGUAUAUAAGAGAUACCAGUCAAAUUAAAGACCCUUGGCAGCUCAGGCGAGUGAUGUUCGCAGGCUAAC [Exclusion Theophylline A GF 17] | 113 nM |
| ACGACGCAUAGUGAUACCAGCAUUAUAUGAGUGAUGUUCUACCUAAAAUGGUAAUAAUUAUGCCCUUGGCAGCACUAUGCGUCAG [KL-SSTheoB3] | 409 nM |
| AGUGCACUGUCAGGAUAUAUACAGUGAUGUUGUGUAUGUCGGCAAGUCAAAGACUUGCCAUUCUGUGUAGAAGGGACUGUGUACA [#04 K4 FMN B Exclusion] | 222 nM |
| UGUCAUUGGUCGGAUACCAGUUGAUGACGAAUACGUCAACUGGAGUGAUGUUCCUAAAACAACCCUUGGCAGCCGACCGAUGACU [MAT - Same State Theophlline B - Mod of Eli - D1] | 852 nM |
| AAGGUUUAGCACGAUACCAGCCUGGAGGCCAGUGAUGUUGGCCGAUUUGAACAGAAUUAAGGCCCUUGGCAGCGUCUCUAAAACC [Dierra] | 192 nM |
| GGGUCUGUCGGAAGGAGCGCGCUAUGGAGUGAUGUUCCAUGACCGUACAGCUUACGGUCAGCGCAGGUAGGUCGCCGAUAGCGUU [Geordiar] | 142 nM |
| GGUGCUGUCUGUGCCGCCCUCCUCGUCCCUCGAGGACCGGUACGGCCGCCACUCGAGUGAUGUUCGGGUAGCCAUCCCUGCUAGC [Bdazzled - #19 Exc. Tryptophan A] | 680 nM |
| AAAAUAACCCAGUGAUGUUGGUAUACAGAUACCAGCGACGAAAGUCGCCCUUGGCAGCUGUGGACGUACAAAAUAAGUACGUCCU | 1120 nM |
| CUUAAGAUAUGAGUGAUGUUCAUGUCCGAAGGAGCGUGCGAAAGCACAGGUAGGUCGCGGAUGUGAGUGAUGUUCAUGUAAGCGA [KL-XArg-A12 #analogue] | 119 nM |
| UUUAACGAGUGAUGUUCGAAAAGUAAUGGUGAGGAUAUCGUUUUUUCGAGAAGGCACCUCGAAGUGAUACGAAAGUAUCGCUUCG [FMN A 3] | 315 nM |
| AUGUUGAGCGGAAGGAGCGGCUGAACCAGUGAUGUUGGUUAAUCCAAGUGAUGUUGGAAAAGCCAGGUAGGUCGCCGCUUUAUGU [Same State Arg B GF 2] | 902 nM |
| GCCGUAGAUUGAAGGAGCGCCGCGCAUGUCCCGCUUAGUGUAGUGAUGUUACAGUUUCAGCGGCAGGUAGGUCGCAAUCUACGGC | 81.3 nM |
| GGAGGGAUCUCGGCCGCCACUCGUGGGAAAUGGGCCUCAGGGAUAUAGUGAUGUUAUGUAAAGAAGAGGACCGGGAGAAGGAAGG [ExTryptoB.Dg] | 330 nM |
| UGGUUUAGAAGUGAUGUUUCGAUAAGUGAUACCAGACAAAAGAAAGUCCCUUGGCAGCACAAUGAUGCCAAGGAAACGGCAUGAU [Same State Theophylline A GF 1] | 115 nM |
| GCCGUACGCAUGGAUACCAGCAUGCAUAUUAGCUAGUGAUGUUAGCGCUAUGCGAUGCUAUGCCCUUGGCAGCCAUGCGUACGGC | 127 nM |
